Laboratory results from publication PMC4003243 (The Journal of Cell Biology, 2014).
Where no end group is shown, it is not given here.

B1: GST–β3-tail (716–762 aa), wild type (domain or fragment, mouse, UniProt O54890 741-787, looked up)
chain: KLLITIHDRKEFAKFEEERARAKWDTANNPLYKEATSTFTNITYRGT
modifications: also: GST fusion
B2: GST–β3-tail, β3-VE chimera (domain or fragment, mouse, UniProt O54890 741-787, looked up)
chain: KLLITIHDRKEFAKFEEERARAKWVENPLYKEATSTFTNITYRGT
modifications: also: GST fusion

Biological target: His-tagged talin head (1–406 aa) (human, UniProt Q9Y490 1-406)
Test: BLI

Chain of His-tagged talin head (1–406 aa) (Q9Y490 1-406): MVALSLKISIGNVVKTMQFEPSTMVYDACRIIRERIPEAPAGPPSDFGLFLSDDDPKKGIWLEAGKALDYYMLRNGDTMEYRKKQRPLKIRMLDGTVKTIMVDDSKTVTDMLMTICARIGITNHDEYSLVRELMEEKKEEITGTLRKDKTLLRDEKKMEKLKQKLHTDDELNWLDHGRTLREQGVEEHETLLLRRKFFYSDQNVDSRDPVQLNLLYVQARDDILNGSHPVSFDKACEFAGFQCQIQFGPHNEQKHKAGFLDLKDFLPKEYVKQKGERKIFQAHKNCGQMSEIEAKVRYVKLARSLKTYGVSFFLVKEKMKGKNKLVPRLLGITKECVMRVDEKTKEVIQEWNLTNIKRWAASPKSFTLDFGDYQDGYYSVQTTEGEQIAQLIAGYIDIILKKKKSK

Binder	binding result	fold higher affinity over wild-type β3-tail [fold]
B1	binds	
B2		~20
